Measured values taken from patent US9206239B2, “Treatment of cancers with immunostimulatory HIV Tat derivative polypeptides” (PIN Pharma, Inc., priority 2009, dated 2015).

Tests used:
4T1 lung metastases = assay: Detection of 4T1 lung metastases; type: in vivo, BALB/c mice; details: treated IV, established 4T1 tumors; p<0.01 vs PBS
From the text: Lungs were examined for 4T1 metastases as previously described (Pulaski B. et al. Cancer Res. 60:2710-2715, 2000). Primary 4T1 tumors that have been established for 2-3 weeks in BALB/c mice metastasize to the lungs in a very large majority of animals. Briefly, mice were sacrificed according to IACUC guidelines established at the start of the trials, the lungs removed, and tumor nodules on the surface of the lungs were enumerated with the naked eye by two independent investigators blinded to the treatment protocols.
To further investigate the efficacy of Nani-P2 against established and metastatic breast cancer, 4T1 cells were injected SC in the abdominal mammary gland of mice and treatment was delayed until such time that the tumors had metastasized to the lungs and averaged 3.5 mm in size (FIG. 8A, day 13), corresponding to a 2.4 cm or stage T2 human breast tumor. Mice were followed for tumor growth (FIG. 8A) and lung metastases (FIG. 8B). […] This corresponded to a less aggressive appearance of primary tumor, as well as lung metastases that were on average much smaller in size (FIG. 8B).

[1] = Toxicity observation in treated mice; type: in vivo; details: SC or IV administration of 40 ng, multiple trials and dosing schedules
4T1 cells = assay: Repeated dosing of Nani-P2 alternating with cyclophosphamide in 4T1 tumor-bearing mice; type: in vivo, BALB/c mice
Method: Four groups of 10 BALB/c mice were implanted with 1×10^4 4T1 cells SC into the mammary fat pad. Treatment was initiated when tumor diameters reached 4-5 mm, on day 10. Control mice were injected IV with PBS at 3 days intervals, while alternating treatment mice received 3 doses of drug every 3 days in rotating 10 day cycles. Tumor burden (tumor size mm^3) was calculated using a standard formula. CY: (cyclophosphamide alone) mice were injected IP weekly with 80 mg/kg per mouse beginning on day 10. Cy/Nani-P2: (cyclophosphamide first followed by Nani-P2) mice were first injected IP with cyclophosphamide (80 mg/kg) at 3 days intervals for three doses starting at day 10 and then injected IV with Nani-P2 (40 ng) at 3 days intervals for three doses in rotation. The cycle of 3 doses of CY followed by 3 doses of Nani-P2 was repeated until day 50. Nani-P2/CY: (Nani-P2 first followed by cyclophosphamide): mice were first injected IV with Nani-P2 (40 ng) at 3 day intervals for 3 doses starting on day 10 and then injected i.p. with cyclophosphamide at 3 day intervals in rotation. The cycle of 3 doses of Nani-P2 followed by 3 doses of CY was repeated until day 50.

SM1 breast cancer cells = assay: SM1 breast carcinoma model; type: in vivo, mice
Method: 4T1 cells, a 6-thioguanine-resistant cell line derived from a BALB/c spontaneous mammary carcinoma was obtained from ATCC; TS/A, a murine adenocarcinoma cell line was provided by Dr. Sandra Demaria (Demaria S. et al. Clin Cancer Res. 11:728-34, 2005); and SM1, the BALB/C-derived mammary carcinoma was kindly was provided by Dr. James Allison, University of California, Berkeley. All tumor cell lines were cultured in DMEM, supplemented with 2 mM L-glutamine, 10 mM HEPES, 150 units/ml penicillin/streptomycin, 10% heat-inactivated FCS (Invitrogen), 50 μM 2-mercaptoethanol (Sigma), and 50 mg/L gentamicin (Lanza).
BALB/c were injected (SC) with 1×10^4 4T1, 1×10^5 TS/A or 2×10^5 SM1 cells, respectively, in the left mammary pad on day 0. Immunotherapy was performed by directly injecting a Tat derivative into the right flank at 0, 7, 12, and 17 days after establishment of tumors. The control group received PBS injection. […] Tumor burden (tumor volume) was measured and recorded three times weekly. Animals were sacrificed when tumors reached a volume of 15 mm in diameter and the tumors harvested and weighed.

[2] = test system: IFN-γ production by spleen cells; assay: ELISA analysis of IFN-γ production by immune spleen cells of 4T1 tumor-bearing mice; type: in vivo, BALB/c mice
Method: FIG. 7 depicts INF-γ production from spleen cells of mice bearing 4T1 breast tumors. BALB/c mice were injected SC with 1×10^4 4T1 cells. Control animals received weekly injections of PBS, while the Nani-P2 treatment comprised once weekly SC injections (40 ng) initiated at day 0 and continued for 4 weeks. On day 33, when control mice were at endstage, the mice were sacrificed, the spleens harvested and frozen as single cell suspensions until time of assay. Spleen cells (2×10^5) and 1×10^4 mitomycin C-treated (50 μg/ml for 30 min) 4T1 stimulator cells (S) were plated into 96-well plates. After 72 hr of stimulation, the supernatants were collected and IFN-γ concentration was determined using a commercial IFN-γ ELISA kit. […] 1: no restimulation; 2: IL-4 (50 ng/ml)/GM-CSF ([…]); 3: stimulator cells/IL-4/GM-CSF; 4: stimulator cells only.
Splenocyte secretion of IFN-γ was assessed by an OPTEIA® ELISA kit (BD Biosciences). Briefly, spleen cells (1×10^5/well) from 4T1 tumor-bearing mice were cultured with or without 5×10^3/well mitomycin C (50 μg/ml)-treated 4T1 cells (used to provide tumor antigens) in DMEM in at a 20:1 E:T (effector:tumor) ratio with […] (50 ng/mL) and GM-CSF (100 ng/ml) in 96-well plates. Supernatants were collected after 72 hr and kept frozen at −80° C. until analysis without loss of activity. IFN-γ was measured in cell-free supernatants of duplicate wells by ELISA according to the manufacturer's instructions. Tumor-specific IFN-γ production was calculated by subtracting the background values measured in supernatants of spleen cells cultured with medium alone and optical density (OD) values were converted to pg/ml amounts of IFN-γ using a recombinant IFN-γ standard curve. Stimulation index (SI) was calculated as the ratio of IFN-γ in stimulated versus control cultures.
To determine whether cytotoxic T-lymphocytes play a role in tumor rejection induced by Nani-P2 therapy, an IFN-γ ELISA assay (FIG. 7) was performed to compare spleen cells of 4T1 tumor-bearing mice treated either without (Control) or with Nani-P2 (FIG. 7). […]

[3] = day 50, Nani-P2 alternating with cyclophosphamide

B1: Nani-P2: HIV Tat derivative polypeptide, SEQ ID NO: 3; derivatized Tat amino terminus from an African Green Monkey variant SIV (protein)
chain: MDPKGEEDQDVSHQDLIKQYRKPRTACNNCYCKKCCFHCYACFLRKGLGITYHAFRTRRKKIASADRIPVPQQSISIRGRDSQTTQESQKKVEEQAKANLRISRKNLGDETRGPVGAGN
modifications: Nani-P2 modified HIV Tat sequence
notes: derivatized Tat amino terminus from an African Green Monkey variant SIV
- average number of grossly visible tumor nodules in the lungs (4T1 lung metastases): seven
- toxicity [1]: no toxicity was observed
- survival benefit vs weekly cyclophosphamide (4T1 cells; Nani-P2 bolus treatment alternating with cyclophosphamide, p=0.0001): highly statistically significant
- mice in partial remission (4T1 cells; [3]): 9/10
- mice in total remission (4T1 cells; [3]): 3/10
- difference in primary tumor growth between control and treated animals (SM1 breast cancer cells; 40 ng SC days 0, 7, 14, 21, p<0.01): highly statistically significant
- animals remaining in remission (SM1 breast cancer cells; 28 days following implant, one week after termination of the regimen): 40%
- animals in which tumor growth was suppressed (SM1 breast cancer cells; for 16 days, 40 ng SC days 0, 7, 14, 21): 100%
- baseline levels of INF-γ secreted by splenocytes vs PBS-treated control mice ([2]; 40 ng SC weekly for 4 weeks, no restimulation): 8 fold
- INF-γ production in cultures of spleen cells vs control ([2]; all conditions of assay): significantly (p<0.01**) higher
- stimulation index vs control ([2]; tumor stimulators + IL4 + GM-CSF added at initiation of culture): 53
